# In paper PMC8419929:
# Experiments:
# [1] = molecular target: rat lutropin/chorionic gonadotropin receptor (rLH/CGR) (rat) (UniProt P16235)
# [2] = molecular target: rat follicle-stimulating hormone receptor (rFSHR) (rat) (UniProt P20395)
# UniProt P20395, sequence (P20395 18-692): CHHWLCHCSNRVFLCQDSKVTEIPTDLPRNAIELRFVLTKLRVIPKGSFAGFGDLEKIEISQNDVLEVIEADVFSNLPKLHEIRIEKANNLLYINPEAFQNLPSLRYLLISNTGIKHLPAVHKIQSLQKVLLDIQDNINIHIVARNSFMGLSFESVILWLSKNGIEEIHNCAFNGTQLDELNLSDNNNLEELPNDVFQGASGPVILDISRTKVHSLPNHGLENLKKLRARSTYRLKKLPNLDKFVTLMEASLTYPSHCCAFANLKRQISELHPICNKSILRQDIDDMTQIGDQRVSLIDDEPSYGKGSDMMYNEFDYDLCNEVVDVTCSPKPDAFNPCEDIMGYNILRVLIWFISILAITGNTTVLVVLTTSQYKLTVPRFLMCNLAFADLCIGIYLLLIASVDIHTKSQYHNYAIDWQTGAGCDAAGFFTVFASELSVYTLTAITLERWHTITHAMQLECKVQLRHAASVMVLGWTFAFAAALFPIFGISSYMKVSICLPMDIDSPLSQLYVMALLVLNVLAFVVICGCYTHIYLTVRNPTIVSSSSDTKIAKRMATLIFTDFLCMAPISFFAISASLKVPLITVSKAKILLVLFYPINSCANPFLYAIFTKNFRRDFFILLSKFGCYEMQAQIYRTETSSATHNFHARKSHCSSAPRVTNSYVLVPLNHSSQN
# UniProt P16235, sequence (P16235 27-700): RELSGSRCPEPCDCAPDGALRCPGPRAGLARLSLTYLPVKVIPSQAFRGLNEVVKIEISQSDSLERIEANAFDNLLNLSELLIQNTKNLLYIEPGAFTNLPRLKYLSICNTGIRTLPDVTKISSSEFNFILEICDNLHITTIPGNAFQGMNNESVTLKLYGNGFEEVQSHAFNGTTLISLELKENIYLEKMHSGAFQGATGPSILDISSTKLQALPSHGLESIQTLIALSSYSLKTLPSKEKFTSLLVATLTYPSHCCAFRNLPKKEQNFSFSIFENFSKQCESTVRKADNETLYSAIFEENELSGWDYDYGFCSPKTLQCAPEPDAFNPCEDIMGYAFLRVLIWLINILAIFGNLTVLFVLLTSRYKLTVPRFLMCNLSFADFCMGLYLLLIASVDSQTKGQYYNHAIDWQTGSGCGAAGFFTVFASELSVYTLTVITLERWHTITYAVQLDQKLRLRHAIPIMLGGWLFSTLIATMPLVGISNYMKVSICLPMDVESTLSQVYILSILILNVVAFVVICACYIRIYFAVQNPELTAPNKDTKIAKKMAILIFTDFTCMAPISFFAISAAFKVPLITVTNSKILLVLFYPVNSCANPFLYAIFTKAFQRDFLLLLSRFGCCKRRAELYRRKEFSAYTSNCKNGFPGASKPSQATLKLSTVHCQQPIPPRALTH
Substance,"EC50 of cAMP production (HTRF cAMP immunoassay) in CHO-K1 cells transiently expressing rLH/CGR, 30 min at room temperature, mock-transfected cells subtracted [1] [µg/mL]","EC50 of cAMP production (HTRF cAMP immunoassay) in CHO-K1 cells transiently expressing rFSHR, 30 min at room temperature, mock-transfected cells subtracted [2] [µg/mL]"
rec-eCGβ-D/αΔ56 (single-chain eCG double mutant: CTP of the β-subunit deleted and Asn56 of the α-subunit replaced with Gln) (ligand),0.334,0.0949
"rec-eCGβ/αΔ56 (single-chain eCG, Asn56 of the α-subunit replaced with Gln) (from UniProt P08751 21-169) (ligand)",0.0176,0.112
"recombinant single-chain equine chorionic gonadotropin, rec-eCGβ/α-wt (from UniProt P08751 21-169) (ligand)",0.0046,0.0271
"rec-eCGβ-D/α (single-chain eCG, CTP region of the β-subunit deleted) (ligand)",0.0245,0.0631
